Substrate: NO
Test: reoxidation of reduced methyl viologen
Assay type: biochemical, Carboxydothermus hydrogenoformans
Details: 0-100 mM NH2OH; reduced methyl viologen as artificial electron donor; two-electron reduction to ammonia and water
From the text: reoxidation of reduced methyl viologen on CooS‐V Ch | hyperbolic dependency on the NH2OH concentration (Figure S2‐C)

B1: CooS‐V Ch (Carboxydothermus hydrogenoformans Z-2901) (protein)
chain: MATKTSIHPSVNELYQRLAEDQLSNCFDRFDPQEKIRCNYCELGVSCQLCSNGPCRINEKVGATLGVCGINADGMAMRYMLLRNVMGTSTYTYHAYEAYKTLKMTALGNTPFTITDKDKLYQMAKDLELNTEGKPEDVAVRLSDFLIWELYRDYDEPGKMIEVYAPLKRKEVWRKLGIYPAGPLHELKDAAASCLTNVDGDYVSLATKGLRLGLSCIYGAQIGLELVQDILFGTGMPHEMDVDLGIFDADYINIVFNGHEPFVGVALILAAKEAVNQDKAKAAGAKSLRIYGSIESGQEVVQRFQKDEVFRGLTGNWLTIEPMLATGAVDVLAMDMNCSPPNLGPLAEKYGATLVSVSRLVRFPGIHHFLDYKPSEVREIAQKIIDIAVDSFKNKRHGKITPKIPANIQKAITGFTPEAILKALGGSINPLIEVIKAGKIKGAVGLINCTTLKNGPQDYVTVNLAKELIKRDILILSGGCGNHALEVAGLCNLDAINLAGPGLSEVCRNLNIPPVLSFGTCTDTGRISLVVTALANALNVDTADLPVAVTAPMYMEQKATIDALFALAYGLYTHVAPDPPVMGAPNLVKLLTRDLPSITGGRIAVGSDPVKVADDILAHINDRRAKLGI
notes: full length, 629 residues; homodimer, apparent 118 kDa; [2Fe-2S], [4Fe-4S] and Fe/S/O hybrid cluster, no Ni
B1 gave a Km of 7.6 ± 2.0 mM and a kcat of 0.13 s–1.

Reference: PMC9311411, “A Morphing [4Fe‐3S‐nO]‐Cluster within a Carbon Monoxide Dehydrogenase Scaffold” (Angewandte Chemie (International Ed. in English), 2022)
